According to patent publication US20220251236A1 (Boehringer Ingelheim, published 2022):

B1: DLL3#15/CD3#1 (bispecific antibody, human IgG1, kappa, lambda, L234A L235A)
chain 1: not shown
chain 2: EAVVTQEPSLTVSPGGTVTLTCRSSTGAVTTSNYANWVQEKPGQLPRGLIGGTNKRAPWVPARFSGSLLGGKAALTLSGAQPEDEAEYFCALWYSNLWVFGGGTKLTVLGQPKAAPSVTLFPPSSEELQANKATLVCLISDFYPGAVKVAWKADGSPVNTGVETTTPSKQSNNKYAASSYLSLTPEQWKSHRSYSCQVTHEGSTVEKTVAPAECSGGGGSEGKSSGSGSESKSTEGKSSGSGSESKSTGGGGSEVQLVESGGGLVQPGGSLKLSCAASGFTFNTYAMNWVRQAPGKGLEWVARIRSKYNNYATYYADSVKDRFTISRDDSKNTAYLQMNNLKTEDTAVYYCVRHGNFGNSYVSWFAYWGQGTLVTVSAASTKGPSVFPLAPSSKSTSGGTAALGCLVKDYFPEPVTVSWNSGALTSGVHTFPAVLQSSGLYSLSSVVTVPSSSLGTQTYICNVNHKPSNTKVDKRVEPKSCDKTHTCPPCPAPEAAGGPSVFLFPPKPKDTLMISRTPEVTCVVVDVSHEDPEVKFNWYVDGVEVHNAKTKPREEQYNSTYRVVSVLTVLHQDWLNGKEYKCKVSNKALPAPIEKTISKAKGQPREPQVYTLPPSREEMTKNQVSLSCAVKGFYPSDIAVEWESNGQPENNYKTTPPVLDSDGSFFLVSKLTVDKSRWQQGNVFSCSVMHEALHNRFTQKSLSLSPG
notes: Heterodimer of one DLL3 chain and one CD3 chain (scFab-Fc, knob-in-hole); SPR not given
B2: DLL3#16/CD3#1 (bispecific antibody, human IgG1, kappa, lambda, L234A L235A)
chain 1: DIQMTQSPSTLSASVGDRVTITCRASQSVSDWLAWYQQKPGKAPKFLIYRASSLESGVPSRFSGSGSGTEFTLTISSLQPADFATYYCQLYNSYSPTFGQGTKVEIKRTVAAPSVFIFPPSDEQLKSGTASVVCLLNNFYPREAKVQWKVDNALQSGNSQESVTEQDSKDSTYSLSSTLTLSKADYEKHKVYACEVTHQGLSSPVTKSFNRGECGGGGSEGKSSGSGSESKSTEGKSSGSGSESKSTGGGGSEVHLVESGGGLVQPGGSLRLSCAASGFTFSSYWMTWVRQAPGKGLEWVANIKEDGSEKYYVDSVKGRFTISRDNAKNSLYLQMNSLRAEDTALYYCARDWGYFDYWGQGTLVTVSSASTKGPSVFPLAPSSKSTSGGTAALGCLVKDYFPEPVTVSWNSGALTSGVHTFPAVLQSSGLYSLSSVVTVPSSSLGTQTYICNVNHKPSNTKVDKRVEPKSCDKTHTCPPCPAPEAAGGPSVFLFPPKPKDTLMISRTPEVTCVVVDVSHEDPEVKFNWYVDGVEVHNAKTKPREEQYNSTYRVVSVLTVLHQDWLNGKEYKCKVSNKALPAPIEKTISKAKGQPREPQVYTLPPSREEMTKNQVSLWCLVKGFYPSDIAVEWESNGQPENNYKTTPPVLDSDGSFFLYSKLTVDKSRWQQGNVFSCSVMHEALHNHYTQKSLSLSPG
chain 2: B1 chain 2
notes: Heterodimer of one DLL3 chain and one CD3 chain (scFab-Fc, knob-in-hole)
B3: anti-DLL3 antibody DLL3#1 (antibody, V domains shown)
VH: QVQLVQSGAEVKKPGASVKVSCKASGNTFTNYYMHWVRQAPGPGLEWMGIIDPSVGSKSYAQKFLGRVTIARDTSTSTVFLDLYSLRSEDTAVYFCARAGKRFGESYFDYWGQGTLVTVSS
VL: EIVLTQSPGTLSLSPGERATLSCRASQSVSSNFLVWYQQKPGQAPRPLIYGASTRASGIPDRFSGSGSGADFTLTISRLEPEDFALYYCQQYGDSPYTFGQGTTLEIK
notes: it was detected with anti-mouse reagents

Experiments:
[1] = biological target: T1, human DLL3 (endogenous, on SCLC cell lines NCI-H82 and SHP77 and in SCLC tissue) (human, UniProt Q9NYJ7 27-618); experiment: flow cytometry titration on SHP77 cells, PE anti-human secondary, x-fold over background
T1 construct: whole, on cells; also called SCLC cell lines expressing DLL3
T1 sequence (looked up): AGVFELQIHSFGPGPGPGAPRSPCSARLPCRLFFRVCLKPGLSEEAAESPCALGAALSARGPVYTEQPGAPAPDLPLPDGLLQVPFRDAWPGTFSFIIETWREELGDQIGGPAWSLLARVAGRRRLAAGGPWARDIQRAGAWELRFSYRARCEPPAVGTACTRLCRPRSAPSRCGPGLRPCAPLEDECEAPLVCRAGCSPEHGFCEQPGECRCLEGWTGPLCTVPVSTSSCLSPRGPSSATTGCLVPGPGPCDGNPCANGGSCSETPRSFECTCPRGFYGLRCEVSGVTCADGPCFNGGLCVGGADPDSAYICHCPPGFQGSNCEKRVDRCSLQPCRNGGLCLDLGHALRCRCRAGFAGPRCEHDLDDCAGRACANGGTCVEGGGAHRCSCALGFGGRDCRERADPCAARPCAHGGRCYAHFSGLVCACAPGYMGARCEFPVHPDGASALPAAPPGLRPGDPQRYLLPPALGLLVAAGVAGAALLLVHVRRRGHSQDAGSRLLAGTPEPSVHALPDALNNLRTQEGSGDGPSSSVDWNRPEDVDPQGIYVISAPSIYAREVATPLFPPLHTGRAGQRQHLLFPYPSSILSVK
From the text: (§1) Cells (T cells or human SCLC cells) were stained with increasing concentrations of two-step purified DLL3/CD3 binding proteins with increasing concentrations in FACS buffer (PBS/0.5% BSA/0.05% sodium azide). Bound molecules were detected with PE-conjugated anti-human secondary antibody (Sigma-Aldrich, #P8047).

[2] = biological target: T1, human DLL3 (endogenous, on SCLC cell …); experiment: flow cytometry titration on NCI-H82 cells, PE anti-human secondary, x-fold over background
From the text: as §1

[3] = biological target: T2, EGF1+2; experiment: flow cytometry on HEK293 cells expressing the DLL3 subdomain construct, PE anti-human secondary, control: secondary antibody only
T2 construct: also called Hu DLL3 EGF1+2 on HEK293 cells
T2 membrane-anchored DLL3 subdomain construct: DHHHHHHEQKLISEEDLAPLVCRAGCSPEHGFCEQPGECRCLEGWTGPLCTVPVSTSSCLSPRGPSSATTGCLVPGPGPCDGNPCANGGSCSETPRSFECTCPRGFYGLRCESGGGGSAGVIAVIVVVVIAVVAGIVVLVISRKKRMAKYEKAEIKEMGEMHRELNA
Experimental: (§2) DLL3/CD3 binding proteins were produced by transient transfection of CHO-E cells with the pTT5 vectors carrying the chain-encoding genes, as described in Example 2. […] Bound molecules were detected with PE-conjugated anti-human secondary antibody (Sigma-Aldrich, #P8047). As negative control, cells were incubated with secondary antibody only.
(§3) The samples were measured by flow-cytometry. […] The sequences of the epitope domains are listed in Example 5, Table 3.

[4] = biological target: T3, EGF2+3; experiment: as above
T3 construct: also called Hu DLL3 EGF2+3 on HEK293 cells
T3 membrane-anchored DLL3 subdomain construct: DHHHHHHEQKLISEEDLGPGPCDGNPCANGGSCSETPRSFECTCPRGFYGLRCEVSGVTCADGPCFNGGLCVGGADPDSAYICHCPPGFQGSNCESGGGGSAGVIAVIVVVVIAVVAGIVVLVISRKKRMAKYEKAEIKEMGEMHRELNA
Experimental: as §2, §3

[5] = biological target: T4, EGF3+4; experiment: as above
T4 construct: also called Hu DLL3 EGF3+4 on HEK293 cells
T4 membrane-anchored DLL3 subdomain construct: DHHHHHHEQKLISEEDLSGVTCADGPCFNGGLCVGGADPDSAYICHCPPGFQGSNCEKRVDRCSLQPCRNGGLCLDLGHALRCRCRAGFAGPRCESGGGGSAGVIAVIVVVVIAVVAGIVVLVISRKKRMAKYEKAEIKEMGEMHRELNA
Experimental: as §2, §3

[6] = biological target: T5, EGF4+5; experiment: as above
T5 construct: also called Hu DLL3 EGF4+5 on HEK293 cells
T5 membrane-anchored DLL3 subdomain construct: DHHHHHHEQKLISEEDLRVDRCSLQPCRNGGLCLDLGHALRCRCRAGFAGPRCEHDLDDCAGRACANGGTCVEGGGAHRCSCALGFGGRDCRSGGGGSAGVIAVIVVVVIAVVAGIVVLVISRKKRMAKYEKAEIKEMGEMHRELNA
Experimental: as §2, §3

[7] = biological target: T6, EGF5+6; experiment: as above
T6 construct: also called Hu DLL3 EGF5+6 on HEK293 cells
T6 membrane-anchored DLL3 subdomain construct: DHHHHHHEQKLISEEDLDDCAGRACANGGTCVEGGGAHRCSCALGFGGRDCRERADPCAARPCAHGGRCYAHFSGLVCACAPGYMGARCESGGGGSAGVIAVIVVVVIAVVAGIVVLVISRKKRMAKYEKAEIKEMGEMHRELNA
Experimental: as §2, §3

[8] = biological target: T7, EGF6+MEMBRANE PROXIMAL PEPTIDE; experiment: as above
T7 construct: also called Hu DLL3 EGF6+membrane proximal peptide on HEK293 cells
T7 membrane-anchored DLL3 subdomain construct: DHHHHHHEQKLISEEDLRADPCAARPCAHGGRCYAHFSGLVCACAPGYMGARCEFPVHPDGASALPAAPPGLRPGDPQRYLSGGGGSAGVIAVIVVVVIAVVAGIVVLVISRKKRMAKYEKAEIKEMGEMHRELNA
Experimental: as §2, §3

[9] = biological target: T8, trypsin inhibitor from glycine max soybean (Glycine max (soybean)); experiment: SPR (Biacore T200), trypsin inhibitor on CM5 chip, sample at 1 µM
T8 construct: also called Tryp
From the text: To prepare the surface for the non-specific binding experiment, chicken egg white lysozyme and trypsin inhibitor from glycine max soybean were coupled manually to a series S CM5 chip with the surface density of 3000-5000 RU using the amine coupling kit according to the manufacture instructions.

[10] = biological target: T9, Human CD3 E+G HuFc-6xHis (human); experiment: SPR (ProteOn XPR36), HuCD3E_HuCD3G-Fc amine-coupled, bispecific as analyte, Example 4B
T9 construct: also called hu CD3εγ-Fc
Experimental: (§4) The binding affinity of purified DLL3/CD3 bispecific constructs for recombinant human DLL3-ECD and Fc-fusion protein of human CD3 εγ subunits was determined by Surface Plasmon Resonance (SPR), using a ProteOn XPR36 instrument (Bio-Rad).
For binding kinetic determination to CD3, HuCD3E_HuCD3G-Fc (dissolved in pH 4.5 acetate) was immobilized directly onto the sensor surface through amine coupling for 360 sec at a flowrate of 30 μl/min vertically. The baseline was stabilized by injecting PBS-T-EDTA for 60 sec at a flowrate of 30 μl/min horizontally. The analytes (all anti-DLL3/CD3 molecules) were injected horizontally over the captured antibody for 600 sec at a flowrate of 30 μl/min and a dissociation for 1800 sec.

[11] = biological target: T10, Human DLL3-His (human, UniProt Q9NYJ7 27-492); experiment: SPR (ProteOn XPR36), bispecific captured on protein A/G, hu DLL3 as analyte, Example 4B
T10 construct: also called huDLL3-His; hu DLL3
T10 sequence: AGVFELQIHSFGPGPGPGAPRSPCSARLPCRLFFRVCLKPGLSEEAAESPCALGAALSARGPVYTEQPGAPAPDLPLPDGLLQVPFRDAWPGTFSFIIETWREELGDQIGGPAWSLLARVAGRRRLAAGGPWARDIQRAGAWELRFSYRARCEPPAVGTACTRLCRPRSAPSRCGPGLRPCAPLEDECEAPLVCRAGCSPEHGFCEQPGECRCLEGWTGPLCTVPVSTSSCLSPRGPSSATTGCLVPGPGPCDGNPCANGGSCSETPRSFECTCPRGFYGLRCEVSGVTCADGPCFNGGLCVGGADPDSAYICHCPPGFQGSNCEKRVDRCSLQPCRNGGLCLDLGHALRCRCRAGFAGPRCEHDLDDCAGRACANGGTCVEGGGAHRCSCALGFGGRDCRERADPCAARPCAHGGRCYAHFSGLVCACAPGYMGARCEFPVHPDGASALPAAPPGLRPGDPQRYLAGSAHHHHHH
Experimental: as §4
For binding kinetic determination to DLL3, anti-DLL3/CD3 molecules were captured individually on the protein A/G surface vertically for 200 sec at a flowrate of 30 μl/min. The baseline was stabilized by injecting PBS-T-EDTA for 60 sec at a flowrate of 30 μl/min horizontally. The analyte (hu DLL3) was injected horizontally over the captured antibody for 300 sec at a flowrate of 30 μl/min and a dissociation for 1800 sec.

[12] = biological target: T1, human DLL3 (endogenous, on SCLC cell …); experiment: flow cytometry on a DLL3-positive SCLC cell line (not named on the sheet), PE-conjugated anti-mouse secondary antibody
From the text: Cells (T cells or human SCLC cells) were stained with increasing concentrations of anti-DLL3 antibody with increasing concentrations in FACS buffer (PBS/0.5% BSA/0.05% sodium azide).

T9 sequence (chain, as listed by the source limits assumed): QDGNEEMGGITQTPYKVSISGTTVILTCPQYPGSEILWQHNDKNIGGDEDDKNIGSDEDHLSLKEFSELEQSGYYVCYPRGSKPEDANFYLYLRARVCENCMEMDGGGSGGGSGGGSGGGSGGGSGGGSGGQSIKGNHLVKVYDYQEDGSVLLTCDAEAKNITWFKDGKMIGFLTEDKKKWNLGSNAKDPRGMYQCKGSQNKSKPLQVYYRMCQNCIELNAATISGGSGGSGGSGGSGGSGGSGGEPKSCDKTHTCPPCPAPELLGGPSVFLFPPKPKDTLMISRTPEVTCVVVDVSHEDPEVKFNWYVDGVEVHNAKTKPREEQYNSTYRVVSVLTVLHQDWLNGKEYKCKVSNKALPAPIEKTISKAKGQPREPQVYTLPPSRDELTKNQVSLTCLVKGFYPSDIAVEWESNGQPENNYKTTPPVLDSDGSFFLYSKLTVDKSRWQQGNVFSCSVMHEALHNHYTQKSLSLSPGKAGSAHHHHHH
T8 sequence (P01070 25-205): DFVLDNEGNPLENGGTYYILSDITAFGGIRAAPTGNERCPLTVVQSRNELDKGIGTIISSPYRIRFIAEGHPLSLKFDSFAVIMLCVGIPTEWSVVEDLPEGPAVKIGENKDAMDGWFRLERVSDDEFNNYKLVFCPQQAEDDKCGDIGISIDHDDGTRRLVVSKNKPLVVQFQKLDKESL

Row | Binder | EC50 (read off the curve) [1] [nM] | EC50 (read off the curve) [2] [nM] | binding result [3] | binding result [4] | binding result [5] | binding result [6] | binding result [7] | binding result [8] | Non-specific binding (RU) [9] [RU] | Kd [10] [nM] | Kd [11] [nM] | binding result [12]
1 | B1 | ~2 | ~1 | no binding (tested: 1.6 nM) | no binding (tested: 1.6 nM) | no binding (tested: 1.6 nM) | no binding (tested: 1.6 nM) | no binding (tested: 1.6 nM) | no binding (tested: 1.6 nM) | – | – | – | –
2 | B2 | – | – | no binding (tested: 1.6 nM) | no binding (tested: 1.6 nM) | no binding (tested: 1.6 nM) | no binding (tested: 1.6 nM) | no binding (tested: 1.6 nM) | no binding (tested: 1.6 nM) | 0 | 2 | 0.228 | –
3 | B3 | – | – | – | – | – | – | – | – | – | – | – | binds
